{
  "source": "patent US20020114805A1",
  "key": {"[1]": {"molecular_target": "human lymphotoxin (TNFβ) (human) (UniProt P01374)", "sequence (P01374 35-205 limits assumed)": "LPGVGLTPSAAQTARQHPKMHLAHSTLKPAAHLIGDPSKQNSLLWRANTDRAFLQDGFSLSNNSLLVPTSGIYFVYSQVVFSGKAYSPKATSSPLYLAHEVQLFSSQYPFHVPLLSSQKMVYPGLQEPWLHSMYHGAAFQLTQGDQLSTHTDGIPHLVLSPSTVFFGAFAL", "experiment": "cell-based or functional assay"}, "[2]": {"molecular_target": "human tumor necrosis factor-α (TNFα) (human) (UniProt P01375)", "sequence (P01375 77-233)": "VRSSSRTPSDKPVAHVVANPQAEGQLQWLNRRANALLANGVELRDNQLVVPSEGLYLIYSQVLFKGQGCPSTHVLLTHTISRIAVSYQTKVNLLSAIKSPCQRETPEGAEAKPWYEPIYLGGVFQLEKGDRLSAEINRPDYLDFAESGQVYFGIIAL", "experiment": "cell-based or functional assay"}},
  "data": [
    {"molecule": "p55-sf2 TNF receptor/IgG1 fusion protein (from UniProt P19438) (Fc fusion)", "values": [
      {"measurement": "amount needed for the same degree of inhibition of TNFβ cytotoxicity, against p75P-sf2 (fold against p75P-sf2)", "setting": "[1]", "result": 3}
    ]},
    {"molecule": "p75-sf2 TNF receptor/IgG1 fusion protein (from UniProt P20333 23-257) (Fc fusion)", "values": [
      {"measurement": "amount needed for the same degree of inhibition of TNFβ cytotoxicity, against p75P-sf2 (fold against p75P-sf2)", "setting": "[1]", "result": 3}
    ]},
    {"molecule": "p75P-sf2 TNF receptor/IgG1 fusion protein (from UniProt P20333 23-204) (Fc fusion)", "values": [
      {"measurement": "concentration to half-inhibit human TNFβ at 2 pM, WEHI 164 cytotoxicity assay", "setting": "[1]", "result": 31, "unit": "pM"}
    ]},
    {"molecule": "chimeric mouse/human IgG1 anti-platelet mAb (7E3) (antibody, INN chains, looked up, V domains shown, chimeric IgG1) VH: EVQLQQSGTVLARPGASVKMSCEASGYTFTNYWMHWVKQRPGQGLEWIGAIYPGNSDTSYIQKFKGKAKLTAVTSTTSVYMELSSLTNEDSAVYYCTLYDGYYVFAYWGQGTLVTVSA VL: EIVLTQSPVTLSVTPGDSVSLSCRASRDISNNLHWFQQTSHESPRLLIKYASQSMSGIPSRFSGSGSGTDFTLSINSVETEDFGMYFCQQTNSWPYTFGGGTKLEIK", "values": [
      {"measurement": "IL-6 in supernatant of FS-4 fibroblasts (ng/ml), rhTNF 0.3 ng/ml with 4 µg/ml antibody (no antibody: 1.36)", "setting": "[2]", "result": 1.6, "unit": "ng/mL"},
      {"measurement": "IL-6 in supernatant of FS-4 fibroblasts (ng/ml), rhTNF 1.5 ng/ml with 4 µg/ml antibody (no antibody: 2.00)", "setting": "[2]", "result": 1.96, "unit": "ng/mL"},
      {"measurement": "IL-6 in supernatant of FS-4 fibroblasts (ng/ml), rhTNF 7.5 ng/ml with 4 µg/ml antibody (no antibody: 2.56)", "setting": "[2]", "result": 2.16, "unit": "ng/mL"}
    ]}
  ]
}
